Assay results published in PMC12291137.

Columns and labels:
[1] = target: substrate B with the designed M13 variant M13-2 (SpyCatcher-M13-2-LPETG-SpyTag(DA)); assay: ITC; CaM (200 μM) titrated into B or P (18 μM); the paper calls K_a(c) an apparent binding constant
[2] = target: substrate B with the designed M13 variant M13-3 (SpyCatcher-M13-3-LPETG-SpyTag(DA)); assay: as above
[3] = target: substrate B (SpyCatcher-M13-LPETG-SpyTag(DA)), with the original M13 (M13-1); assay: kinetics of the covalent SpyTag-SpyCatcher reaction by SDS-PAGE densitometry + LC-MS of the product; A and B mixed 1:1 (10 μM each) with 0.1 equiv of SrtA or C, Tris-HCl buffer, pH 8.0, 10 mM CaCl2, 37 °C

| Substance | Ka [1] | Ka [2] | k AB(c), second-order rate constant of the covalent SpyTag-SpyCatcher reaction in the catalyzed cascade (with C) [3] | k AB(s), second-order rate constant of the covalent SpyTag-SpyCatcher reaction in the spontaneous cascade (with SrtA) [3] |
| --- | --- | --- | --- | --- |
| calmodulin (CaM) (from UniProt P0DP23 1-149) (natural protein) | 20000 M⁻¹ | < 100 M⁻¹ |  |  |
| substrate A (GGG-SpyTag-YFP) |  |  | 90 M^–1 s^–1 | 67 M^–1 s^–1 |
